This passage reports Relative cAMP EC50, cAMP Rel EC50 (in the presence of 1% HSA) and cAMP Rel EC50, nM (in the presence of 1% HSA) results from patent US20240270821A1, “GIP/GLP1/GCG TRI-RECEPTOR AGONISTS AND USES THEREOF” (priority 2023, published 2024).

Positions count from the first letter of the chain named.

First the molecules themselves.
B1: Example 626 (peptide)
chain: YXQGTXTSDXSIXLDKKAQXAFIEYLEEGGPSSGAPPPEGTGE
modifications: non-natural residues, (γGlu)2-diacid acylated Lys, C-terminal amide; synthetic construct; SITE 2: note = 2-Aminoisobutyric Acid; SITE 6: note = alpha-methyl-2-fluoro-L-phenylalanine; SITE 10: note = 3-(4-Pyridyl)-L-alanine; SITE 13: note = alpha-methyl-leucine; SITE 17: note = Lysine is chemically modified through conjugation of the epsilon-amino group of the Lysine
B2: Example 630 (peptide)
chain: B1 chain with A35E, E39S, T41S, G42E
modifications: non-natural residues; lipidated Lys; C-terminal amide; synthetic construct; SITE 2: note = 2-Aminoisobutyric Acid; SITE 6: note = alpha-methyl-2-fluoro-L-phenylalanine; SITE 10: note = 3-(4-Pyridyl)-L-alanine; SITE 13: note = alpha-methyl-leucine; SITE 17: note = Lysine is chemically modified through conjugation of the epsilon-amino group of the Lysine
B3: Example 634 (peptide)
chain: B1 chain with E27Q, A35E, E39S, T41S, G42E
modifications: (γGlu)2-C18 diacid on Lys; non-natural residues; amide; synthetic construct; SITE 2: note = 2-Aminoisobutyric Acid; SITE 6: note = alpha-methyl-2-fluoro-L-phenylalanine; SITE 10: note = 3-(4-Pyridyl)-L-alanine; SITE 13: note = alpha-methyl-leucine; SITE 17: note = Lysine is chemically modified through conjugation of the epsilon-amino group of the Lysine
B4: Example 628 (peptide)
chain: B1 chain with A35E
modifications: non-natural residues; lipidated Lys; C-terminal amide; synthetic construct; SITE 2: note = 2-Aminoisobutyric Acid; SITE 6: note = alpha-methyl-2-fluoro-L-phenylalanine; SITE 10: note = 3-(4-Pyridyl)-L-alanine; SITE 13: note = alpha-methyl-leucine; SITE 17: note = Lysine is chemically modified through conjugation of the epsilon-amino group of the Lysine
B5: Example 631 (peptide)
chain: B1 chain with E27A, A35E, E39S, T41S, G42E
modifications: non-natural residues; acylated Lys; C-terminal amide; synthetic construct; SITE 2: note = 2-Aminoisobutyric Acid; SITE 6: note = alpha-methyl-2-fluoro-L-phenylalanine; SITE 10: note = 3-(4-Pyridyl)-L-alanine; SITE 13: note = alpha-methyl-leucine; SITE 17: note = Lysine is chemically modified through conjugation of the epsilon-amino group of the Lysine
B6: Example 635 (peptide)
chain: B1 chain with A21X, A35E, E39S, T41S, G42E
modifications: non-natural residues; C18 diacid-(γ-Glu)2 acyl on Lys; C-terminal amide; synthetic construct; SITE 2: note = 2-Aminoisobutyric Acid; SITE 6: note = alpha-methyl-2-fluoro-L-phenylalanine; SITE 10: note = 3-(4-Pyridyl)-L-alanine; SITE 13: note = alpha-methyl-leucine; SITE 17: note = Lysine is chemically modified through conjugation of the epsilon-amino group of the Lysine
B7: Example 632 (peptide)
chain: B1 chain with E27S, A35E, E39S, T41S, G42E
modifications: Aib, αMeF(2F), 4Pal, αMeL, acylated K, C-terminal amide; synthetic construct; SITE 2: note = 2-Aminoisobutyric Acid; SITE 6: note = alpha-methyl-2-fluoro-L-phenylalanine; SITE 10: note = 3-(4-Pyridyl)-L-alanine; SITE 13: note = alpha-methyl-leucine; SITE 17: note = Lysine is chemically modified through conjugation of the epsilon-amino group of the Lysine
B8: Example 633 (peptide)
chain: B1 chain with E27T, A35E, E39S, T41S, G42E
modifications: non-natural residues, C18 diacid acylation, C-terminal amide; synthetic construct; SITE 2: note = 2-Aminoisobutyric Acid; SITE 6: note = alpha-methyl-2-fluoro-L-phenylalanine; SITE 10: note = 3-(4-Pyridyl)-L-alanine; SITE 13: note = alpha-methyl-leucine; SITE 17: note = Lysine is chemically modified through conjugation of the epsilon-amino group of the Lysine
B9: Example 59 (peptide)
chain: YXQGTFTSDFSXXLDKKAQXAFIEYLLEGGPSSGEPPPSEG
modifications: synthetic construct; SITE 2: note = 2-Aminoisobutyric Acid; SITE 12: note = L-ornithine; SITE 13: note = alpha-methyl-leucine; SITE 17: note = Lysine is chemically modified through conjugation of the epsilon-amino group of the Lysine side chain with (2-[2-(2-Amino-ethoxy)-ethoxy]-acetyl)-(gamma-Glu)
B10: Example 61 (peptide)
chain: B9 chain with G29X, E35A
modifications: synthetic construct; SITE 2: note = 2-Aminoisobutyric Acid; SITE 12: note = L-ornithine; SITE 13: note = alpha-methyl-leucine; SITE 17: note = Lysine is chemically modified through conjugation of the epsilon-amino group of the Lysine side chain with (2-[2-(2-Amino-ethoxy)-ethoxy]-acetyl)-(gamma-Glu)
B11: Example 60 (peptide)
chain: B9 chain with E28A, E35A
modifications: synthetic construct; SITE 2: note = 2-Aminoisobutyric Acid; SITE 12: note = L-ornithine; SITE 13: note = alpha-methyl-leucine; SITE 17: note = Lysine is chemically modified through conjugation of the epsilon-amino group of the Lysine side chain with (2-[2-(2-Amino-ethoxy)-ethoxy]-acetyl)-(gamma-Glu)

Sequence of human glucagon receptor (human) (P47871 26-477): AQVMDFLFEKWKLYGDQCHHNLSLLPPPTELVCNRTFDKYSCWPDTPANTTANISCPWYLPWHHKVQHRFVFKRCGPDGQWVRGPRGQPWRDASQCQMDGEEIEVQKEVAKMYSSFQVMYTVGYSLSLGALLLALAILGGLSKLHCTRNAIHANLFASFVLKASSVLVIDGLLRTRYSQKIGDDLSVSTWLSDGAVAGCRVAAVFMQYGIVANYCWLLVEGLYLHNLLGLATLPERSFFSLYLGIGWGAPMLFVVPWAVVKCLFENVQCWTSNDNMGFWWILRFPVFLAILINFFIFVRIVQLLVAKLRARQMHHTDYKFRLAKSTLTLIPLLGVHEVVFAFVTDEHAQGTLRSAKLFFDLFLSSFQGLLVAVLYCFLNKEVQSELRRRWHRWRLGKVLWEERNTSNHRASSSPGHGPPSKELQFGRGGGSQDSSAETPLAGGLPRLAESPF

For one experiment, the target named is hGLP-1R (Homo sapiens, UniProt P43220). As to the kind of experiment: cell-based or functional assay.
Sequence of hGLP-1R (P43220 24-463): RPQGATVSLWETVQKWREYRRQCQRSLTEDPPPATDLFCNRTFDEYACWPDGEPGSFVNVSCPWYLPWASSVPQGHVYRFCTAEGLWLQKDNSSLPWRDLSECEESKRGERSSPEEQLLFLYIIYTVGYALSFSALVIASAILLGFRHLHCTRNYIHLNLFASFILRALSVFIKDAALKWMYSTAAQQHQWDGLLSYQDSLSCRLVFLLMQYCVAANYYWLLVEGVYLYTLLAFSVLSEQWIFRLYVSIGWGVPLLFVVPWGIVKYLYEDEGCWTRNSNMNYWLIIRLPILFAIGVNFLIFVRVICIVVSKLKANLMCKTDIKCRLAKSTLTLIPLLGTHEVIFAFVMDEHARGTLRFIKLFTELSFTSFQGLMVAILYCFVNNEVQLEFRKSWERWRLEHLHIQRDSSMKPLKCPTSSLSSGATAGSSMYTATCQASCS
Take B1: the Relative cAMP EC50 amounted to 0.889 nM and the cAMP Rel EC50 (in the presence of 1% HSA) was 60.8 nM.
Regarding B2, the Relative cAMP EC50 was 0.762 nM and the cAMP Rel EC50 (in the presence of 1% HSA) stood at 74.5 nM.
Regarding B3, the Relative cAMP EC50 worked out at 0.403 nM and the cAMP Rel EC50 (in the presence of 1% HSA) turned out to be 34.9 nM.
Turning to B4, the Relative cAMP EC50 turned out to be 1.11 nM and the cAMP Rel EC50 (in the presence of 1% HSA) was 79.8 nM.
As for B5, the Relative cAMP EC50 is 0.658 nM and the cAMP Rel EC50 (in the presence of 1% HSA) turned out to be 55 nM.
As for B6, the Relative cAMP EC50 is 0.625 nM and the cAMP Rel EC50 (in the presence of 1% HSA) was determined as 53.9 nM.
In the case of B7, the Relative cAMP EC50 came to 0.951 nM and the cAMP Rel EC50 (in the presence of 1% HSA) turned out to be 88.2 nM.
Consider B8, for which the Relative cAMP EC50 amounted to 0.421 nM and the cAMP Rel EC50 (in the presence of 1% HSA) amounted to 41.2 nM.
For the molecule B9, the Relative cAMP EC50 was determined as 4.8 nM and the cAMP Rel EC50, nM (in the presence of 1% HSA) was determined as 1370 nM.
For B10 the same measures were 2.05 nM and 704 nM.
For B11, the Relative cAMP EC50 worked out at 1.93 nM and the cAMP Rel EC50, nM (in the presence of 1% HSA) came to 409 nM.

Another experiment has as its target human glucagon receptor (human) (UniProt P47871). As to the kind of experiment: cell-based or functional assay.
For B1, the Relative cAMP EC50 worked out at 8.72 nM and the cAMP Rel EC50 (in the presence of 1% HSA) was 546 nM.
For B2 the same measures were 8.07 nM and 872 nM.
For B3 the same measures were 6.49 nM and 979 nM.
As to B4, the Relative cAMP EC50 was 7.47 nM and the cAMP Rel EC50 (in the presence of 1% HSA) was found to be 651 nM.
B5: the Relative cAMP EC50 is 16.8 nM and the cAMP Rel EC50 (in the presence of 1% HSA) amounted to 1250 nM.
Consider B6, for which the Relative cAMP EC50 is 7.09 nM and the cAMP Rel EC50 (in the presence of 1% HSA) turned out to be 753 nM.
Taken in the same sequence, the figures for B7 were 13.5 nM and 1600 nM.
Turning to B8, the Relative cAMP EC50 turned out to be 10.2 nM and the cAMP Rel EC50 (in the presence of 1% HSA) stood at 1500 nM.
Take B9: the Relative cAMP EC50 came out at 6.57 nM and the cAMP Rel EC50, nM (in the presence of 1% HSA) came out at 2160 nM.
As for B10, the Relative cAMP EC50 turned out to be 3.57 nM and the cAMP Rel EC50, nM (in the presence of 1% HSA) was determined as 1310 nM.
For B11, the Relative cAMP EC50 is 8.96 nM and the cAMP Rel EC50, nM (in the presence of 1% HSA) is 1210 nM.

The next experiment concerns the target T1, human GIP receptor (human) (UniProt P48546).
T1 sequence (looked up): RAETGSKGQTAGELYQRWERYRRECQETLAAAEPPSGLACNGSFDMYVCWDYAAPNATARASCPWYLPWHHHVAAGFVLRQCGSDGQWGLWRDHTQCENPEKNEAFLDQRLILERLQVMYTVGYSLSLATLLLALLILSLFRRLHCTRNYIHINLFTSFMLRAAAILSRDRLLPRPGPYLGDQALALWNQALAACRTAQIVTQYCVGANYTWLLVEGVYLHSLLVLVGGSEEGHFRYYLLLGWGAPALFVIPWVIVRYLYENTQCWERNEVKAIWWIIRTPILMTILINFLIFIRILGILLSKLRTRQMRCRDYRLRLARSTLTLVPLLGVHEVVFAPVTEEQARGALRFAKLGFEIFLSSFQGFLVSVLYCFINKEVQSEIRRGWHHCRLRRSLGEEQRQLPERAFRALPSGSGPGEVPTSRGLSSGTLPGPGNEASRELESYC
As to the kind of experiment: cell-based or functional assay.
As to B1, the Relative cAMP EC50 came out at 0.0192 nM and the cAMP Rel EC50 (in the presence of 1% HSA) came to 1.75 nM.
For B2, the Relative cAMP EC50 was found to be 0.0233 nM and the cAMP Rel EC50 (in the presence of 1% HSA) was determined as 2.96 nM.
Regarding B3, the Relative cAMP EC50 came to 0.0195 nM and the cAMP Rel EC50 (in the presence of 1% HSA) amounted to 1.48 nM.
For B4 the same measures were 0.0278 nM and 1.87 nM.
B5: the Relative cAMP EC50 is 0.0375 nM and the cAMP Rel EC50 (in the presence of 1% HSA) amounted to 3.92 nM.
Regarding B6, the Relative cAMP EC50 came out at 0.0405 nM and the cAMP Rel EC50 (in the presence of 1% HSA) came to 2.7 nM.
Regarding B7, the Relative cAMP EC50 turned out to be 0.068 nM and the cAMP Rel EC50 (in the presence of 1% HSA) turned out to be 5.48 nM.
Turning to B8, the Relative cAMP EC50 worked out at 0.0186 nM and the cAMP Rel EC50 (in the presence of 1% HSA) was determined as 1.63 nM.
B9: the Relative cAMP EC50 is 0.54 nM and the cAMP Rel EC50, nM (in the presence of 1% HSA) turned out to be 166 nM.
As for B10, the Relative cAMP EC50 stood at 0.122 nM and the cAMP Rel EC50, nM (in the presence of 1% HSA) was found to be 55.2 nM.
B11: the Relative cAMP EC50 stood at 0.135 nM and the cAMP Rel EC50, nM (in the presence of 1% HSA) came to 33 nM.
